The results in this text go back to PMC9385276.

Like-named read-outs stand apart in the source and are kept apart here.

Data set [1] addresses T1, PDGF-BB (human, UniProt P01127 82-190). The experiment in a line: ELISA. In general terms: ELISA stands for enzyme-linked immunosorbent assay.
For data set [2], the target named is T1, PDGF-BB. Nature of the data set: ELISA. The source holds these as a separate data set.

T1 sequence (P01127 82-190): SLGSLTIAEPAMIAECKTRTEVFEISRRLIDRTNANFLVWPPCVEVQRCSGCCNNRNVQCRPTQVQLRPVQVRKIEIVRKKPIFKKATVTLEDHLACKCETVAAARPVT

B1: Aa11 (structured_DNA)
DNA: CAGGCTACGGCACGTAGAGCATCACCATGATCCTGAAAAAATAATACGACTCACTATAGGGCCGTAGCCTG
As to B1, the binding result with PDGF-BB [1] is “binds”.

B2: Aa10 (structured_DNA)
DNA: CAGGCTACGGCACGTAGAGCATCACCATGATCCTGAAAAAATAATACGACTCACTATAGGGTCCGTAGCCTG
As for B2, in the data set with PDGF-BB [2], the binding result is given as “binds”.
